Key:
Myomaker = target: T1, Myomaker (Mus musculus, UniProt Q9D1N4); experiment: Co-immunoprecipitation of Minion with Myomaker in differentiating muscle cells; assay type: binding; settings: tagged and untagged Minion, endogenous and overexpressed Myomaker
T1 construct: endogenous in cells; host or cells: Differentiating muscle cells
T1 sequence (Q9D1N4 1-221): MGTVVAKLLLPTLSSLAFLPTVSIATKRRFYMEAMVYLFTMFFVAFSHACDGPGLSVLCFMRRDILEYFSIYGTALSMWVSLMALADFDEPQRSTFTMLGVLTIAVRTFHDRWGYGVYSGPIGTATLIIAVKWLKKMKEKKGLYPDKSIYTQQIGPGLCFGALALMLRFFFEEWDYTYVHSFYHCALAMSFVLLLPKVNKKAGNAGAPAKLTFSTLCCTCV

MINION^KD C2C12 cells = experiment: In vitro reconstitution (complementation) assay of the fusion defect in MINION^KD C2C12 cells; assay type: cell-based, mouse; settings: retroviral cDNA expression, 5 days in differentiation medium, MHC immunofluorescence, MINION tested tagged and untagged
Procedure: For primary myoblasts derived from both embryos and adult mice, around 3000 cells in 50 μl myoblast growth medium (1:1 mixture of DMEM low glucose and Ham's F-10 Nutrient Mix; 20% (v/v) FBS; freshly added 2.5 ng/ml rhFGF) were seeded into each well of a 384-well Collagen-coated PerkinElmer CellCarrier™ plate (6007550) for imaging purposes. The next day, differentiation medium (DMEM high glucose (Gibco® 11995073) with 3% to 5% horse serum) was added to the cells (DM day 0). Differentiation medium was replaced daily. The cells were fixed at DM day 3 and day 4 for immunofluorescence staining. For C2C12 cells, ˜1500-2000 cells were seeded into each well of a 384-well plate (DMEM high glucose with 10% FBS) and around 2×10^5 cells were seeded into each well of a 6-well plate, using C2C12 growth medium (DMEM high glucose with 10% FBS). On the next day, differentiation medium (DMEM high glucose with 2% horse serum) was added to the cells (DM day 0), and differentiation medium was likewise replaced daily. […]
For the cloning of cDNA constructs, the coding sequences (CDS) of mouse MINION (for the 84 aa isoform), human MINION ortholog, mouse tmem8c (myomaker), nanoluc (control A), luciferase (control B), mouse MINION with 1 bp insertion, human MINION with 1 bp deletion, and mouse MINION truncation (39 aa form) were synthesized (IDT) with attB sites at both ends and a consensus Kozak sequence (5′ GCCACC (SEQ ID NO: 94)) before the start codon. […] After expression testing of the two 3F1H-tagged mouse and human MINION constructs, it was noticed that two bands were detected by Western blot with anti-FLAG antibody (FIG. 16). […]
To examine the knockdown efficiency of the mouse MINION transcript, shRNA-encoding lentiviruses were used to infect C2C12 cells. […] Based on an estimated viral titer of 1×10^8 vp/ml (as measured on 293T cells), a virus amount equivalent to MOI30 on 293T cells was used on C2C12 cells. […] Infection efficiency of 70-85% was routinely achieved as judged by FACS analysis, though GFP signal in undifferentiated C2C12 cells was barely discernable by EVOS fluorescence microscopy. […]

C2C12 myoblasts = experiment: Cell mixing of 10T1/2 fibroblasts with differentiating C2C12 myoblasts; assay type: cell-based, mouse; settings: 10T1/2 fibroblasts mixed with wild-type C2C12 myoblasts (1:2), 3 days in differentiation medium
Excerpt: Differentiating myoblasts and myotubes are marked by MHC. 10T1/2 fibroblasts were infected with retrovirus expressing GFP and proteins of interest (left, NanoLuc control; middle, mouse Myomaker; right, mouse Minion). DAPI marks nuclei. […] White arrows indicate MHC-positive myotubes that are not fused to fibroblasts. n=2 (eight technical replicates each). 0.7 mm×0.7 mm fields are shown. […] 0.7 mm×0.7 mm fields at ×20 magnification are shown. Control and Minion^KD myoblasts were used. Differentiating myoblasts and myotubes are marked by MHC. 10T1/2 fibroblasts expressing Myomaker were labelled with CellTrace Violet dye before mixing. […]
(§1) Cell labeling was performed according to manufacturer's instructions with slight modifications. […] After the last wash, the cells were counted and diluted to the concentration needed for the final mixing experiment in a 384-well or 24-well plate, and were incubated at 37° C. for 30 min. […]
C3H 10T1/2 fibroblasts were infected with retroviruses encoding GFP and either control, Myomaker or Minion; GFP-positive fibroblasts were then mixed with wild-type C2C12 myoblasts and kept in differentiation medium for 3-4 days. Differentiating myoblasts and myotubes were marked by MHC expression, and fusion of GFP-positive fibroblasts to myotubes was readily detected when Myomaker, but not Minion or control, was expressed (FIG. 28A).

10T1/2 fibroblasts = experiment: Heterologous co-expression, syncytia formation between fibroblasts; assay type: cell-based; settings: retroviral expression in 10T1/2 fibroblasts, growth medium
Procedure: In order to infect C2C12 cells and 10T1/2 cells, neat virus was incubated with 8 μg/ml polybrene at 37° C. for 10 min and then added to the cells, which were then incubated for 15 min at 37° C. One round of spin infection was performed using 24-well or 12-well plates at 1100 g for 1-1.5 hours and 32° C. After 4-6 hours, fresh neat virus with polybrene was added and a second round of spin infection was performed. Fresh medium was added to the infected cells to dilute the polybrene. […] Infection efficiency of this two-round infection method was generally >95% over a large range of viral concentrations, therefore FACS was not generally necessary. This strong GFP signal was used to mark the boundary of cells, in addition to phase contrast imaging and nuclear markers (FIGS. 22, 23A-23F); moreover, in cells that were fixed with 4% PFA but not permeabilized with detergents, the GFP signal was higher in the nuclear region, allowing unambiguous delineation of both the cell boundary and nuclei. […]
as §1

B1: mouse MINION: 84 aa mouse microprotein inducer of fusion, expressed from retroviral cDNA, untagged or C-terminally 3×FLAG-1×HA-tagged (protein, listed as Mus musculus)
chain: MPVPLLPMVLRSLLSRLLLPVARLARQHLLPLLRRLARRLSSQDMREALLSCLLFVLSQQQPPDSGEASRVDHSQRKERLGPQK
physical interaction with Myomaker (co-immunoprecipitation, western blot) (Myomaker): no detectable physical interaction
rescue of the cell fusion defect (MINION^KD C2C12 cells): robustly rescued fusion
fusion of fibroblasts expressing the protein to wild-type differentiating myoblasts and myotubes (C2C12 myoblasts): failed to do so
cell fusion between fibroblasts (multinuclear syncytia) (10T1/2 fibroblasts): neither Myomaker nor Minion alone (FIG. 21D) was sufficient

B2: Myomaker: muscle-specific transmembrane protein; mouse tmem8c CDS expressed from retroviral vector (protein)
chain: MGTVVAKLLLPTLSSLAFLPTVSIATKRRFYMEAMVYLFTMFFVAFSHACDGPGLSVLCFMRRDILEYFSIYGTALSMWVSLMALADFDEPQRSTFTMLGVLTIAVRTFHDRWGYGVYSGPIGTATLIIAVKWLKKMKEKKGLYPDKSIYTQQIGPGLCFGALALMLRFFFEEWDYTYVHSFYHCALAMSFVLLLPKVNKKAGNAGAPAKLTFSTLCCTCV
rescue of the cell fusion defect (MINION^KD C2C12 cells): incapable of rescuing the fusion defect
fusion of fibroblasts expressing the protein to wild-type differentiating myoblasts and myotubes (C2C12 myoblasts): fused with wild-type differentiating myoblasts and myotubes
cell fusion between fibroblasts (multinuclear syncytia) (10T1/2 fibroblasts): neither Myomaker nor Minion alone (FIG. 21D) was sufficient

B3: human Minion: human ortholog of MINION, 84 codon ORF, expressed from retroviral cDNA, untagged or C-terminally epitope-tagged (protein, listed as Homo sapiens)
chain: MPTPLLPLLLRLLLSRLLLPAARLARQYLLPLLRRLARRLGSQDMREALLGCLLFILSQRHSPDAGEASRVDRLERRERLGPQK
rescue of the cell fusion defect (MINION^KD C2C12 cells): strongly reconstituted cell fusion

— patent US11339209B2, “Compositions, methods, and therapeutic uses related to fusogenic protein minion” (NOVARTIS AG, priority 2016, dated 2022)
